Assay results as given in patent US7494647 (Chugai, dated 2009).

Molecular target: T1, human tissue factor (TF) on human bladder carcinoma cells J82 (human, UniProt P13726 33-295)
T1 construct: whole, on cells; also called the antigen; J82 cells
Assay: cell ELISA on paraformaldehyde-fixed J82 cells; AP-conjugated goat anti-human IgGγ; absorbance 405/655 nm
Experimental: Cell ELISA plates for measurement of antigen binding were prepared as follows. Cells used were human bladder carcinoma cells J82 (ATCC HTB-1). To 60 wells of a 96-well cell culture plate, 1 ×10^5 J82 cells were inoculated. This was cultured (RPMI1640 medium containing 10% fetal bovine serum (GIBCO)) for one day in a CO_2 incubator to allow the cells to be attached thereto. After discarding the culture liquid, each well was washed twice with 300 μl PBS. 100 μl of PBS containing 4% paraformaldehyde (hereinafter referred to as PFA/PBS) was added to each well, and placed on ice for 10 minutes to immobilize the cells.
PFA/PBS was discarded, and each well was washed twice with 300 μl of PBS, and then blocked with 250 μl of DB. The culture supernatant or purified antibody was serially diluted with DB, 100 μl of which was added to each well. After incubating at room temperature for 2 hours followed by washing with RB, 100 μl of alkaline phosphatase-conjugated goat anti-human IgGγ antibody (BioSource) diluted 1000-fold with DB was added. After incubating for 1 hour followed by washing with RB, the substrate solution was added, and then absorbance at 405/655 nm was measured using the Microplate Reader (Bio-Rad).

T1 sequence (P13726 33-295): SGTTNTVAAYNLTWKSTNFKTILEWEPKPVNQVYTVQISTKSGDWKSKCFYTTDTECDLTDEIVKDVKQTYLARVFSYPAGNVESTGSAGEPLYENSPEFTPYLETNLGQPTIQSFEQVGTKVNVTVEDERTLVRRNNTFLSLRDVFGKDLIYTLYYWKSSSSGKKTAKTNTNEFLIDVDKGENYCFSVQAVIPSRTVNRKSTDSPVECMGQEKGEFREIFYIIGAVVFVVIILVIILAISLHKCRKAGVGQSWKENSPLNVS

Row | Binder | EC50 (read off the curve) | binding result
1 | H chain humanized version i/L chain chimeric antibody (antibody, IgG4, V domains shown, L chain V region is that of mouse ATR-5; also called i-ch) VH: QVQLLESGAVLARPGTSVKISCKASGFNIKDYYMHWVKQRPGQGLEWIGGNDPANGHSMYDPKFQGRVTITADTSTSTAYMELRSLRSDDTAVYYCARDSGYAMDYWGQGTLVTVSS VL: DIKMTQSPSSMYASLGERVTITCKASQDIKSFLSWYQQKPWKSPKTLIYYATSLADGVPSRFSGSGSGQDYSLTINNLESDDTATYYCLQHGESPYTFGGGTKLEIK |  | binds
2 | H chain humanized version b/L chain chimeric antibody (antibody, IgG4, V domains shown, L chain V region is that of mouse ATR-5; also called b-ch) VH: QVQLLESGAVLARPGTSVKISCKASGFNIKDYYMHWVKQRPGQGLEWIGGNDPANGHSMYDPKFQGRVTITADTSTNTAYMELSSLRSEDTAIYYCARDSGYAMDYWGQGTLVTVSS VL: DIKMTQSPSSMYASLGERVTITCKASQDIKSFLSWYQQKPWKSPKTLIYYATSLADGVPSRFSGSGSGQDYSLTINNLESDDTATYYCLQHGESPYTFGGGTKLEIK | ~0.1 µg/mL | 
3 | H chain humanized version g/L chain humanized version b antibody (antibody, IgG4, V domains shown, also called g-b) VH: QVQLLESGAVLARPGTSVKISCKASGFNIKDYYMHWVKQRPGQGLEWIGGNDPANGHSMYDPKFQGKATLTADESSSTAYMQLSSLRSEDSAVYSCARDSGYAMDYWGQGTLVTVSS VL: DIQMTQSPSSLSASVGDRVTITCKASQDIKSFLSWYQQKPGKAPKLLIYYATSLADGVPSRFSGSGSGTDYTLTISSLQPEDFATYYCLQHGESPYTFGGGTKVEIK | ~0.04 µg/mL | 
4 | H chain humanized version d/L chain chimeric antibody (antibody, IgG4, V domains shown, L chain V region is that of mouse ATR-5; also called d-ch) VH: QVQLLESGAVLARPGTSVKISCKASGFNIKDYYMHWVKQRPGQGLEWIGGNDPANGHSMYDPKFQGRVTITADESTSTAYMELSSLRSEDSAVYFCARDSGYAMDYWGQGTLVTVSS VL: DIKMTQSPSSMYASLGERVTITCKASQDIKSFLSWYQQKPWKSPKTLIYYATSLADGVPSRFSGSGSGQDYSLTINNLESDDTATYYCLQHGESPYTFGGGTKLEIK | ~0.07 µg/mL | 

Second part, the binder after the results:

Row | EC50 (read off the curve) | binding result | Binder
5 | ~0.1 µg/mL |  | H chain humanized version b/L chain humanized version a antibody (antibody, IgG4, V domains shown, also called b-a) VH: QVQLLESGAVLARPGTSVKISCKASGFNIKDYYMHWVKQRPGQGLEWIGGNDPANGHSMYDPKFQGRVTITADTSTNTAYMELSSLRSEDTAIYYCARDSGYAMDYWGQGTLVTVSS VL: DIQMTQSPSSLSASVGDRVTITCKASQDIKSFLSWYQQKPGKAPKLLIYYATSLADGVPSRFSGSGSGTDFTLTISSLQPEDFATYYCLQHGESPYTFGGGTKVEIK
6 |  | binds | H chain humanized version i/L chain humanized version b1 antibody (antibody, IgG4, V domains shown, also called i-b1) VH: QVQLLESGAVLARPGTSVKISCKASGFNIKDYYMHWVKQRPGQGLEWIGGNDPANGHSMYDPKFQGRVTITADTSTSTAYMELRSLRSDDTAVYYCARDSGYAMDYWGQGTLVTVSS VL: DIQMTQSPSSLSASVGDRVTITCKASQDIKSFLSWFQQKPGKSPKTLIYYATSLADGVPSRFSGSGSGTDYTLTISSLQPEDFATYYCLQHGESPYTFGGGTKVEIK
7 |  | binds | H chain humanized version d/L chain humanized version b antibody (antibody, IgG4, V domains shown, also called d-b) VH: QVQLLESGAVLARPGTSVKISCKASGFNIKDYYMHWVKQRPGQGLEWIGGNDPANGHSMYDPKFQGRVTITADESTSTAYMELSSLRSEDSAVYFCARDSGYAMDYWGQGTLVTVSS VL: DIQMTQSPSSLSASVGDRVTITCKASQDIKSFLSWYQQKPGKAPKLLIYYATSLADGVPSRFSGSGSGTDYTLTISSLQPEDFATYYCLQHGESPYTFGGGTKVEIK
8 |  | binds | H chain humanized version j/L chain humanized version b antibody (antibody, IgG4, V domains shown, also called j-b) VH: QVQLLESGAVLARPGTSVKISCKASGFNIKDYYMHWVKQRPGQGLEWIGGNDPANGHSMYDPKFQGRVTFTADTSANTAYMELRSLRSADTAVYYCARDSGYAMDYWGQGTLVTVSS VL: DIQMTQSPSSLSASVGDRVTITCKASQDIKSFLSWYQQKPGKAPKLLIYYATSLADGVPSRFSGSGSGTDYTLTISSLQPEDFATYYCLQHGESPYTFGGGTKVEIK
